Experimental findings from patent publication US20250042994A1 (HAINAN SIMCERE ZAIMING PHARMACEUTICAL, published 2025) are described below.

A word on the EC50: it is the concentration needed to bring the measured effect to its halfway point.

Assay [1] concerns the target T1, cynomolgus monkey CD19 on peripheral blood B cells (cynomolgus monkey (Macaca fascicularis), UniProt A0A2K5W8L9 20-557).
T1 construct: whole, on cells; also called cynomolgus monkey B cells
T1 sequence: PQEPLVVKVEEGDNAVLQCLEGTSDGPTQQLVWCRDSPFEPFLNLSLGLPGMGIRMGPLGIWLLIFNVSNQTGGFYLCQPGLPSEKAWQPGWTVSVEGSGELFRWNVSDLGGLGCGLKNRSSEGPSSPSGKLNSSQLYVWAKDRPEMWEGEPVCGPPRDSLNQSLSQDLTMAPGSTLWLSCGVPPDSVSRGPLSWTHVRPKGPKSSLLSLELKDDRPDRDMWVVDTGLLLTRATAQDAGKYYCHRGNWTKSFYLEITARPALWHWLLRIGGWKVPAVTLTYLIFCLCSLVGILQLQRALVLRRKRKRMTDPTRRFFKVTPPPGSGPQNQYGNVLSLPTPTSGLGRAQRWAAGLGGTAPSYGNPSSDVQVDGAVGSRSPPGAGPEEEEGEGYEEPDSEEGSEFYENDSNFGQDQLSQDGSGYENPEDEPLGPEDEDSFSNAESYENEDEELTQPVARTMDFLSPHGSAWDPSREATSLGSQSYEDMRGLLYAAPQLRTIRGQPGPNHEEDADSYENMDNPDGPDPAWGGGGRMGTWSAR
Description: FACS, cynomolgus PBMC, CD20+ B cells. The procedure:
The monkey peripheral blood mononuclear cells were extracted from fresh cynomolgus monkey peripheral blood (purchased from Shanghai Medicilon Inc.) according to the instructions of Ficoll-Paque Plus (purchased from GE Healthcae, catalog number: 171440-02). After the cell suspension was centrifuged, the cells were resuspended in PBS containing 1% BSA, and then the cells were counted. […] The mixture was incubated for 1 h at room temperature. After washing the cells three times, APC-labeled secondary antibody anti-human IgG Fc (catalog number: 409306, purchased from Biolegend) was added. After incubation at room temperature in the dark for 30 minutes, the cells were washed 5 times, gently resuspended with PBS containing 1% BSA, and detected and analyzed by FACS (FACS Canto™, purchased from BD Company), in which CD20 was used as a marker of B cells to gate the CD20-positive B cell population, the proportion of the chimeric antibody-labeled positive cells was analyzed, and the proportion of the chimeric antibody positive cell population to B cell population was calculated after treatments with the chimeric antibodies at the concentrations of 100 nM, 10 nM and 1 nM, respectively.
Background: Flow cytometry measures light scatter and fluorescence of single cells or particles in a stream.

Assay [2] deals with T2, human CD19 on Raji cells (human, UniProt P15391 20-556).
T2 construct: whole, on cells
T2 sequence (looked up): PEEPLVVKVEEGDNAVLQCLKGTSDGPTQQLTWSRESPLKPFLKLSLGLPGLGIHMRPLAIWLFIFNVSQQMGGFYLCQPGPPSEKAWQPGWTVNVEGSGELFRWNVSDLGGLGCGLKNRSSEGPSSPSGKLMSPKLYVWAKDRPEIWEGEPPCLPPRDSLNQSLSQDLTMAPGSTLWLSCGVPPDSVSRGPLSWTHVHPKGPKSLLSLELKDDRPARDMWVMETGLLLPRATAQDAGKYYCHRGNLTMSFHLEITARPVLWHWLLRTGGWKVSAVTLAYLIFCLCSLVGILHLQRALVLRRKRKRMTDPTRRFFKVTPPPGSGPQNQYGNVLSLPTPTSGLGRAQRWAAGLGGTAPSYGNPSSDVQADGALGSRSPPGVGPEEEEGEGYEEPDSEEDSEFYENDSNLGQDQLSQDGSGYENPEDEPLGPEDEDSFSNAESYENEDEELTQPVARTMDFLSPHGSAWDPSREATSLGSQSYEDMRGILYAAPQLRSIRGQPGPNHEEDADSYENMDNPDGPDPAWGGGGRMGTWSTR
Description: FACS on Raji cells. The source says: (§1) The desired cells were scale-up cultured in a T-75 cell culture flask to the logarithmic growth phase. For the adherent cell CHO-K1, the medium was aspirated, the cells were washed 2 times with a PBS buffer, and then digested with trypsin. After the digestion was terminated, the cells were washed 2 times with a PBS buffer; and for suspension cell Raji, the supernatant of the medium was discarded by directly centrifugation, and the cell pellet was washed 2 times with PBS. After counting the cells in the previous step, the cell pellet was resuspended with [PBS+2% (w/w) BSA] blocking solution to 2×10⁶ cells/ml, and added to a 96-well FACS reaction plate at 50 μl/well, and then the sample to be tested was added at 50 μl/well, and incubated on ice for 2 h. The obtained mixture was centrifuged and washed 3 times with a PBS buffer. […] The obtained mixture was centrifuged and washed 5 times with a PBS buffer, and FACS (FACS Canto™, purchased from BD Company) was used for detection and result analysis. Data analysis was performed by software (FlowJo) to obtain the mean fluorescence intensity (MFI) of the cells. And then software (GraphPad Prism8) was used for analysis, data fitting, and EC50 value calculation. […] The same method was used to detect the binding of the chimeric antibodies to endogenous CD19-negative cells, MoLT4 cells (purchased from ATCC, CRL-1582), and CHO-K1 cells.

Assay [3] has as its target T3, monkey CD19 on HEK293T-monkey CD19 cells (monkey).
T3 construct: whole, on cells
In words: FACS on HEK293T-monkey CD19 cells. On the procedure:
as §1, with “After” for “The desired cells were scale-up cultured in a T-75 cell culture flask to the logarithmic growth phase. For the adherent cell CHO-K1, the medium was aspirated, the cells were washed 2 times with a PBS buffer, and then digested with trypsin. After”
HEK293T-monkey CD19 cells were subjected to FACS detection and data analysis according to the method in example 5.2. […] The same method was used to detect binding of the chimeric antibodies to HEK293T cells.

Assay [4] concerns the target T4, human CD19 on CHO-K1-human CD19 cells (human, UniProt P15391 20-556).
T4 construct: whole, on cells; also called CHO-K1-human CD19-2C8
T4 sequence (looked up): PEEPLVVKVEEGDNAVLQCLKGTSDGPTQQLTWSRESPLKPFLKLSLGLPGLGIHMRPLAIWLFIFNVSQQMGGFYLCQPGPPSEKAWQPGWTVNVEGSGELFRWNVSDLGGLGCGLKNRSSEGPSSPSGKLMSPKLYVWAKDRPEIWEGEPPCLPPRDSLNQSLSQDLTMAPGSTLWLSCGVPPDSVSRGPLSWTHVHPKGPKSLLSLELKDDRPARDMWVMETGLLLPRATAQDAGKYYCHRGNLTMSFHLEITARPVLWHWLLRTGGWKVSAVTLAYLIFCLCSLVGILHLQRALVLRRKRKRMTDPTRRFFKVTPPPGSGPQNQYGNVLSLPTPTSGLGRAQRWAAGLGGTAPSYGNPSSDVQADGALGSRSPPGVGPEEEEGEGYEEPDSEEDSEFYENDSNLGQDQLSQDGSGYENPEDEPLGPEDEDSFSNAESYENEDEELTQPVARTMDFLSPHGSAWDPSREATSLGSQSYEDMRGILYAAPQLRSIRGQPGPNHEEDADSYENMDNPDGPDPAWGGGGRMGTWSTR
In words: FACS on CHO-K1-human CD19 cells.
Source text: as §1

B1: F5.2.9 (antibody, human IgG1, V domains shown)
VH: QVTLKESGPGILQPSQTLSLTCSFSGFSLSTFGLGVGWVRQPSGKGLEWLAHIWWDDDKYYNPALKSRVTVSKETSKNQVFFKIANVDTADSATYYCARLSRGLRRDVVYAMDHWGQGTSVTVSS
VL: DIQMTQTTSSLSASLGDRVTISCRASQDISNYLNWYQQKPDGSVKLLISYVSRLQSGVPSRFRGSGSGTDYSLTISNLDQEDIATYFCQQGIAFPYTFGGGTKLDIK
notes: human-murine chimeric antibody, human IgG1
As for B1, in assay [1], the “Proportion of chimeric antibody positive cells to B cells (%) at 1 nM” value (“Proportion … (%) at 1 nM” below) came to 93%, the “Proportion of chimeric antibody positive cells to B cells (%) at 10 nM” value (from here on “Proportion … (%) at 10 nM”) was determined as 98% and the “Proportion of chimeric antibody positive cells to B cells (%) at 100 nM” value (“Proportion … (%) at 100 nM” below) was determined as 98%. Further, in assay [2], the EC50 is 2.79 nM and the “Maximum mean fluorescence intensity” value is 17600. Further, in assay [3], the EC50 is 2.82 nM and the “Maximum mean fluorescence intensity” value came out at 81500. Further, in assay [4], it took 1.02 nM to reach a half-maximal effect (EC50) and the “Maximum mean fluorescence intensity” value stood at 34000.

B2: F4.272.13 (antibody, human IgG1, V domains shown)
VH: QVQLKESGPGLVAPSQSLSITCTVSGFSLTDYGVSWIRQPPGKGLEWLGVIWGSETTFYNSALKSRLSISKDNSKSQLFLQMNSLQADDTAIYYCAKHHYYGGSFSMDYWGQGTSVTVSS
VL: DIQMTQTTSSLSASLGDRVTISCRASQDINNYLNWYQQKPDGTVKFLIYYTSRLHSGVPSRFSGSGSGTDYSLTISDLEQEDIATYFCQQGNTLPYTFGGGTKLEIK
notes: as for B1
As to B2, in assay [1], the “Proportion … (%) at 1 nM” value is 1%, the “Proportion … (%) at 10 nM” value came out at 2% and the “Proportion … (%) at 100 nM” value stood at 9%. In addition, in assay [2], the EC50 turned out to be 0.81 nM and the “Maximum mean fluorescence intensity” value was 27600. Besides, in assay [3], the EC50 was found to be 3.86 nM and the “Maximum mean fluorescence intensity” value was 40500. For the same molecule, in assay [4], the EC50 was 0.77 nM and the “Maximum mean fluorescence intensity” value was 55300.

B3: F4.180.1 (antibody, human IgG1, V domains shown)
VH: EVQLQQSAPELVKPGASVKMSCKTSGYTFTENIIHWVKQTHGKSLEWIGGINPDNGGTSYHQKFKGRTTLTIDKSSSTAYMELRSLTSDDSAVFFCARQAPLYWYFDIWGAGTTVTVSS
VL: DIVLTQSPASLAVSLGQRATISCRASESVDSYGNSLMHWFQQKPGQPPRLLIYRASNLESGIPARFSGSGSRTDFTLTITPVEADDVATYYCQQSNEDPWTFGGGTKLEIK
notes: as for B1
Regarding B3, the EC50 in assay [2] was determined as 0.96 nM; in assay [4], 1.24 nM. For the same molecule, the entries for the “Maximum mean fluorescence intensity” value in assay [2], in assay [3] and in assay [4] were 23700, 94 and 49600, respectively.

B4: F5.3.6 (antibody, human IgG1, V domains shown)
VH: DVQLQESGPGLVKPSQSQSLTCSVTGYSITSGYYWNWIRQFPGNKLEWMGYISYDGSNNYNPSLKNRISITRDTSKNQFFLKLNSVTTEDTVTYYCARAPLTGDRYWYFDVWGTGTTVTVSS
VL: DIVLTQSPASLAVSLGQRATISCRASQSVSTSSYSYMHWYQQKPGQTPKLLIKYASNLKSGVPARFSGSGSGTDFTLNIHPVEEEDTATYYCQHSWEIPPTFGGGTKLEIK
notes: as for B1
As for B4, in assay [1], the “Proportion … (%) at 1 nM” value was determined as 2%, the “Proportion … (%) at 10 nM” value was determined as 7% and the “Proportion … (%) at 100 nM” value worked out at 12%. Besides, in assay [2], the EC50 was 3.19 nM and the “Maximum mean fluorescence intensity” value was 22400. Besides, in assay [3], the midpoint of the response, the EC50, lay at 20.7 nM and the “Maximum mean fluorescence intensity” value amounted to 26100. For the same molecule, in assay [4], the EC50 was 3.62 nM and the “Maximum mean fluorescence intensity” value turned out to be 46900.
